In patent publication US20090155236:

Target: T1, annexin V protein
T1 chain: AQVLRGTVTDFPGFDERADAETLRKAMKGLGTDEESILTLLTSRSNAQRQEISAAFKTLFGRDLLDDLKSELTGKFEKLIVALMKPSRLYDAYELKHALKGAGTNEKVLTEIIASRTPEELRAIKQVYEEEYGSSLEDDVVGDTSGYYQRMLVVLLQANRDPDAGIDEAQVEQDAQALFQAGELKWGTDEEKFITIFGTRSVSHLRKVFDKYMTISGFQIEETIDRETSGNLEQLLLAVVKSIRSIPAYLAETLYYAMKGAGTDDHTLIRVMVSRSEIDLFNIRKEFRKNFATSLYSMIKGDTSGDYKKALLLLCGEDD

B1: recombinant full-length delta PKC (protein)
chain: MAPFLRISFNSYELGSLQVEDEASQPFCAVKMKEALSTERGKTLVQKKPTMYPEWKTTFDAHIYEGRVIQIVLMRAAEDPVSEVTVGVSVLAERCKKNNGKAEFWLDLQPQAKVLMCVQYFLEDGDCKQSMRSEEEAKFPTMNRRGAIKQAKIHYIKNHEFIATFFGQPTFCSVCKEFVWQKQGYKCRQCNAAIHKKCIDKIIGRCTGTATNSRDTIFQKERFNIDMPHRFKVYNYMSPTFCDHCGSLLWGLVKQGLKCEDCGMNVHHKCREKVANLCGINQKLLAEALNQVTQRSSRKLDTTESVGIYQGFEKKPEVSGSDILDNNGTYGKIWEGSTRCTLENFTFQKVLGKGSFGKVLLAELKGKDKYFAIKCLKKDVVLIDDDVECTMVEKRVLALAWESPFLTHLICTFQTKDHLFFVMEFLNGGDLMFHIQDKGRFELYRATFYAAEIICGLQFLHSKGIIYRDLKLDNVMLDRDGHIKIADFGMCKENIFGEGRASTFCGTPDYIAPEILQGLKYSFSVDWWSFGVLLYEMLIGQSPFHGDDEDELFESIRVDTPHYPRWITKESKDIMEKLFERDPDKRLGVTGNIRIHPFFKTINWSLLEKRKVEPPFKPKVKSPSDYSNFDPEFLNEKPQLSFSDKNLIDSMDQEAFHGFSFVNPKFEQFLDI
- histone phosphorylation in an in vitro kinase reaction (SDS-PAGE, autoradiography): The addition of annexin V to delta PKC in the presence of PS/DAG (Lane 3) increases the catalytic activity of delta PKC

B2: purified full-length epsilon PKC (protein)
chain: MVVFNGLLKIKICEAVSLKPTAWSLRHAVGPRPQTFLLDPYIALNVDDSRIGQTATKQKTNSPAWHDEFVTDVCNGRKIELAVFHDAPIGYDDFVANCTIQFEELLQNGSRHFEDWIDLEPEGRVYVIIDLSGSSGEAPKDNEERVFRERMRPRKRQGAVRRRVHQVNGHKFMATYLRQPTYCSHCRDFIWGVIGKQGYQCQVCTCVVHKRCHELIITKCAGLKKQETPDQVGSQRFSVNMPHKFGIHNYKVPTFCDHCGSLLWGLLRQGLQCKVCKMNVHRRCETNVAPNCGVDRIAKVLADLGVTPDKITNSGQRRKKLIAGAESPQPASGSSPSEEDRSKSAPTSPCDQEIKELENNIRKALSFDNRGEEHRAASSPDGQLMSPGENGEVRQGQAKRLGLDEFNFIKVLGKGSFGKVMLAELKGKDEVYAVKVLKKDVILQDDDVDCTMTEKRILALARKHPYLTQLYCCFQTKDRLFFVMEYVNGGDLMFQIQRSRKFDEPRSRFYAAEVTSALMFLHQHGVIYRDLKLDNILLDAEGHCKLADFGMCKEGILNGVTTTTFCGTPDYIAPEILQELEYGPSVDWWALGVLMYEMMAGQPPFEADNEDDLFESILHDDVLYPVWLSKEAVSILKAFMTKNPHKRLGCVASQNGEDAIKQHPFFKEIDWVLLEQKKIKPPFKPRIKTKRDVNNFDQDFTREEPVLTLVDEAIVKQINQEEFKGFSYFGEDLMP
- histone phosphorylation in an in vitro kinase reaction (SDS-PAGE, autoradiography): annexin V does not increase the activity of epsilon PKC
